Patent US20210292393A1 (published 2021)
Where a chain is given by its changes, count along the chain named.

B1: antibody 552 (antibody, V domains shown)
VH: QVQLVQSGAEVKKPGSSVKVSCKASGGTFSSYGISWVRQAPGQGLEWMGRIIPILGIANYAQKFQGRVTITADKSTSTAYMELSSLRSEDTAVYYCARAVYAAGDDDYYYYYGMDVWGQGTTVTVSS
VL: SYELTQPPSVSVSPGQTARITCSGDALPKQYAYWYQQKPGQAPVVVIYKDSDRPSGIPERFSGSSSGTTVTLTISGVQAEDEADYYCQSADSSGTYQVFGTGTKVSVL
B2: antibody 367 (antibody, V domains shown)
VH: QVQLVQSGAEVKKPGASVKVSCKASGYTFTGYYIHWVRQAPGQGLEWMGWINPNSGGTIYAQKFQGRVTMTRDTSISTAYMELSRLTSDDTAVYSCAREPYYDILTGYYAPRRYFDYWGQGTLVTVSS
VL: QSALTQPASVSGSPGQSITISCTGTSSDVGSYNYVSWYLQHPGKAPKLMIYDVSNRPSGVSNRFSGSKSGNTASLTISGLQAEDEADFYCSSYTSRSTYVFGTGTKVTVL
B3: antibody 454 (antibody, V domains shown)
VH: B2 VH with V18L, T28I, I34M, N52S, I59K, T87R, T91S, S95Y, A110T, F115L
VL: B2 VL with S31D, L39Q, A45V, N55H, S61T, Q81R, F88Y, R96S
B4: antibody 421 (antibody, V domains shown)
VH: QVQLVESGGGVVQPGRSLRLSCAASGFTFSTYAMHWVRQAPGKGLEWVAVISYDGSNKYYADSVKGRFTISRDNSKNTLYLQMNSLRAEDTAVYYCARGYGSGSYYPLYLYWGQGTLVTVSS
VL: not shown
B5: antibody 385 (antibody, V domains shown)
VH: QVQLVESGGGVVQPGRSLRLSCAASGFTFSSYAIHWVRQAPGKGLEWVAVISYDGSNKYYADSVKGRFTISRDNSKNTLYLQMNSLRAEDTAVYYCARPRSGSYWGAFDIWGQGTMVTVSS
VL: QSVLTQPPSVSGAPGQRVTISCTGSSSNIGARYDVHWYQQLPGTAPKLLIYGNSNRPSGVPDRFSGSKSGTSASLAITGLQAEDEADYYCQSYDSSLRGVFGGGTKLTVL
B6: antibody 446 (antibody, V domains shown)
VH: B5 VH with I34M, R100N, W105F, A107Y, D109Q, I110H, M116L
VL: QSVLTQPPSVSGAPGQRVTISCTGSSSNIGAGYDVHWYQQLPGTAPKLLIYGNSNRPSGVPDRFSGSKSGTSASLAITGLQAEDEADYYCQSYDSSLSGFYVFGTGTKVTVL
B7: antibody 439 (antibody, V domains shown)
VH: B5 VH with I34M, R100P, S101R, S103G, Y104S, W105Y, G106Y, A107P, I110P, M116L
VL: not shown
B8: antibody 372 (antibody, V domains shown)
VH: QVQLVESGGGVVQPGRSLRLSCAASGFTFSSYAMHWVRQAPGKGLEWVAVISYDGSNKYYADSVKGRFTISRDNSKNTLYLQMNSLRAEDTAVYYCARDLGTSALLWFGELFLNYGMDVWGQGTTVTVSS
VL: QSALTQPRSVSGSPGQSVTISCTGTSSDVGGYNYVSWYQQHPGKAPKLMIYDVSKRPSGVPDRFSGSKSGNTASLTISGLQAEDEADYYCCSYAGSPILVFGGGTKLTVL
B9: antibody 405 (antibody, V domains shown)
VH: not shown
VL: B8 VL with P97Y, I98N, L99V
B10: antibody 423 (antibody, V domains shown)
VH: EVQLVESGGGLIQPGGSLRISCAASGFTVRNNHMSWVRQAPGKGLEWVSVFYRGGTTYYADSVKGRFTISRDDSKNTVDLQMNSLRGEDTAVYYCARGLSVAASGYFDCWGQGTLVTVSS
VL: DIQMTQSPSSVSASVGDTVTITCRANQGISSWLAWYQQVPGKAPELLIYATSTLQSGVPSRFSGSGSGTDFTLTISSLQPEDFATYYCQQANSFPFTFGPGTKVDIK
B11: antibody 456 (antibody, V domains shown)
VH: QVQLQQWGAGLLKPSETLSLTCAVYGGSFSGYYWSWIRQPPGKGLEWIGEINHSGSTNYNPSLKSRVTISVDTSKNQFSLKLSSVTAADTAVYYCARDGSGSYYLSYYFDYWGQGTLVTVSS
VL: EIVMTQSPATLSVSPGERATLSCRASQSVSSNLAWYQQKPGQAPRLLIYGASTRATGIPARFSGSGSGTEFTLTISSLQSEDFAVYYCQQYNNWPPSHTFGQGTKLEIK
B12: antibody 378 (antibody, V domains shown)
VH: QVQLVQSGAEVKKPGASVKVSCKASGYTFTSYYMHWVRQAPGQGLEWMGIINPSGGSTSYAQKFQGRVTMTRDTSTSTVYMELSSLRSEDTAVYYCARDSGGMDDFWSGYYSPGGDYWGQGTLVTVSS
VL: QSALTQPASVSGSPGQSITISCTGTSSDVGSYNLVSWYQQHPGKAPKLMIYEGSKRPSGVSNRFSGSKSGNTASLTISGLQAEDEADYYCCSYAGSSTWVFGGGTKLTVL
B13: antibody 409 (antibody, V domains shown)
VH: QVTLRESGPALVKPTQTLTLTCTFSGFSLSTSGMCVSWIRQPPGKALEWLALIDWDDDKYYSTSLKTRLTISKDTSKNQVVLTMTNMDPVDTATYYCARTTYYYVSGRRAEFDPWGQGTLVTVSS
VL: NFMLTQPHSVSESPGKTVTISCTGSSGSIASNYVQWYQQRPGSAPTTVIYEDNQRPSGVPDRFSGSIDSSSNSASLTISGLKTEDEADYYCQSYDSSNQGVFGGGTKLTVL
B14: antibody 559 (antibody, V domains shown)
VH: QVQLQESGPGLVKLSETLSLTCTVSGYSISSGYYWGWIRQPPGKGLEWIGSIYHSGSTYYNPSLKSRVTISVDTSKNQFSLKLSSVTAADTAVYYCAREETLGSSWYESYIDYWGQGTLVTVSS
VL: SYVLTQPPSVSVAPGKTARITCGGNNIGSKSVHWYQQKPGQAPVLVIYYDSDRPSGIPERFSGSNSGNTATLTISRVEAGDEADYYCQVWDSSSDHPRVFGGGTKLTVL
B15: antibody 395 (antibody, V domains shown)
VH: QVQLVQSGSELKKPGASVKLSCQASGYTFSNHAMNWVRQAPGQGLEWMGWINTNTGNPTYAQGFTGRFVFSLDTSVGTAYLHISSLKAEDTAFYYCARASARPGVATNLDFWGQGTLVVVSS
VL: DIQMTQSPSSLSASVGDRVTITCRTSQNIDNYLNWYQQKPGKAPNLLIYAASRLHSGVPSRFSGSGSGTDFTLIISSLQPEDLATYYCQQSYSNPLTFGPGTKVDIR
B16: antibody 422 (antibody, V domains shown)
VH: QVQLVQSGSELKKPGASVKVSCKASGYTFTSYAMNWVRQAPGQGLEWMGWINTNTGNPTYAQGFTGRFVFSLDTSVSTTYLQISSLKAEDTAVYYCARVIGVVTYYYYGMDVWGQGTTVTVSS
VL: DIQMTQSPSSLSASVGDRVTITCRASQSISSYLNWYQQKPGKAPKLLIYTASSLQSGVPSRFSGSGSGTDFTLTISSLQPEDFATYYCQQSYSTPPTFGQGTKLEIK
B17: antibody 431 (antibody, V domains shown)
VH: QVQLVESGGGVVQPGRSLRLSCAASGFTFSSYAMHWVRQAPGKGLEWLAVISYDGSNKYYADSVKGRFTISRDNSKNTLYLQMNSLRAEDTAVYYCARSFRGGYYYGMDVWGQGTTVTVSS
VL: DIQLTQSPSFLSASVGDRVTITCRASQGISSYLAWYQQKPGKAPKLLIYAASTLQSGVPSRFSGSGSGTEFTLTISSLQPEDFATYYCQQLNSYPLFTFGPGTKVDIK

Legend:
[1] = target: SARS-CoV-2 full length spike protein, V367F mutant (SARS-CoV-2, UniProt P0DTC2 14-1273)
[2] = target: SARS-CoV-2 full length spike protein, D614G mutant (SARS-CoV-2, UniProt P0DTC2 14-1273)
[3] = target: SARS-CoV-2 full length spike protein, V483A mutant, expressed on CHO cells (SARS-CoV-2, UniProt P0DTC2 14-1273)
[4] = target: SARS-CoV-2 full length spike protein, V483A mutant (SARS-CoV-2, UniProt P0DTC2 14-1273)

| Binder | median fluorescence fold over isotype control [3] [fold over isotype] | median fluorescence fold over isotype control [4] [fold over isotype] | also measured |
| --- | --- | --- | --- |
| B1 | – | – | median fold over isotype [1]: 13.2 fold over isotype; median fold over isotype [2]: 23.5 fold over isotype |
| B2 | 16.3 | – | – |
| B3 | – | 19.7 | – |
| B4 | – | 9.33 | – |
| B5 | 8.16 | – | – |
| B6 | – | 6.16 | – |
| B7 | – | 9.01 | – |
| B8 | 18.1 | – | – |
| B9 | 7.51 | – | – |
| B10 | – | 15.3 | – |
| B11 | – | 8.16 | – |
| B12 | 14.3 | – | – |
| B13 | 9.21 | – | – |
| B14 | – | – | median fold over isotype [1]: 25.4 fold over isotype; median fold over isotype [2]: 49.5 fold over isotype |
| B15 | 8.92 | – | – |
| B16 | – | 15.2 | – |
| B17 | – | 11.7 | – |
